Laboratory results from patent publication US20250376528A1 (SYNTHEKINE, published 2025).

T1: extracellular domain of human IL10Rβ (amino acids 20-220, UniProtKB Q08334) (human, UniProt Q08334 20-220)
T1 construct: range 20-220; Antigen used for camel immunization and for phage selection; also called hIL-10Rβecd; hIL10-R2
T1 sequence (looked up): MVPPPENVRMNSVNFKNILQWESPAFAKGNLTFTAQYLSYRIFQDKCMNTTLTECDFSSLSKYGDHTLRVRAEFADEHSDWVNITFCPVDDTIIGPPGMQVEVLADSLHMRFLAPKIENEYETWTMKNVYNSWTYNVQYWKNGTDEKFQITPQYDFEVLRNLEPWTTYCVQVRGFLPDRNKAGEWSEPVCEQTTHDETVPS

T2: extracellular domain of human IL10Rα (amino acids 22-235, UniProtKB Q13651) (human, UniProt Q13651 22-235)
T2 construct: range 22-235; Antigen used for camel immunization and for phage selection; also called hIL-10Rαecd; hIL10-R1
T2 sequence (looked up): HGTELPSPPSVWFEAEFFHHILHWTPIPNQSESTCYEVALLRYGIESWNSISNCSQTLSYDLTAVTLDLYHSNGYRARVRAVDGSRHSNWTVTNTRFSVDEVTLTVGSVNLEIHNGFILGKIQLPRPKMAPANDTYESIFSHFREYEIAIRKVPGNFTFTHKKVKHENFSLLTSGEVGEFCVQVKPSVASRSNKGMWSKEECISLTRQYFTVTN

B1: anti-hIL-10Rβecd VHH SEQ ID NO 56 (VHH)
VHH: QVQLQESGGGSVQAGGSLRLSCAASGYSYSSYCMGWFRQAPGKEREGVATIDSDGMTRYADSVKGRFTISKDNAKNTLYLQMNSLKPEDTAMYYCAAPLYDCDSGAVGRNPPYWGQGTQVTVSS
notes: Camel VHH selected by phage display; also called Anti-IL10Rβ
B2: anti-hIL-10Rβecd VHH SEQ ID NO 52 (VHH)
VHH: QVQLQESGGGSVQAGGSLRLSCAASGYTYSSYCMGWFRQAPGKEREGVAHIDSDGSTSYADSVKGRFTISKDNAKNTLYLQMNSLKPEDTAMYYCAADPIPGPGYCDGGPNKYWGQGTQVTVSS
notes: as for B1
B3: anti-hIL-10Rβecd VHH SEQ ID NO 57 (VHH)
VHH: QVQLQESGGGSVQTGGSLRLSCAASGYTYLRGCMGWFRQAPGKEREGVAVMDVVGDRRSYIDSVKGRFTISRDNAANSVYLQMDNLKPEDTAMYYCTAGPNCVGWRSGLDYWGQGTQVTVSS
notes: as for B1
B4: anti-hIL-10Rαecd VHH SEQ ID NO 45 (VHH)
VHH: QVQLQESGGGSVQAGGSLRLSCAASRFTYSSYCMGWFRQAPGKEREGVASIDSDGSTSYTDSVKGRFTISKDNAKNTLYLQMNSLKPEDTAMYYCALDLMSTVVPGFCGFLLSAGMDYWGKGTQVTVSS
notes: Camel VHH selected by phage display; also called Anti-IL10Rα
B5: anti-hIL-10Rαecd VHH SEQ ID NO 46 (VHH)
VHH: QVQLQESGGGSVQAGGSLRLSCAASGYTYSMYCMGWFRQAPGKEREGVAQINSDGSTSYADSVKGRFTISKDNAKNTLYLQMNSLKPEDTAMYYCAADSRVYGGSWYERLCGPYTYEYNYWGQGTQVTVSS
notes: as for B4
B6: anti-hIL-10Rαecd VHH SEQ ID NO 47 (VHH)
VHH: QVQLQESGGGSVQAGGSLRLSCAVSGYAYSTYCMGWFRQAPGKEREGVAAIDSGGSTSYADSVKGRFTISKDNAKNTLYLRMNSLKPEDTAMYYCAAVPPPPDGGSCLFLGPEIKVSKADFRYWGQGTQVTVSS
notes: as for B4
B7: anti-hIL-10Rαecd VHH SEQ ID NO 50 (VHH)
VHH: QVQLQESGGGSVQAGGSLRLSCAASGYSNCSYDMTWYRQAPGKEREFVSAIHSDGSTRYADSVKGRFFISQDNAKNTVYLQMNSLKPEDTAMYYCKTDPLHCRAHGGSWYSVRANYWGQGTQVTVSS
notes: as for B4
B8: anti-hIL-10Rαecd VHH SEQ ID NO 48 (VHH)
VHH: QVQLQESGGGSVQAGGSLRLSCTVSGYTYSSNCMGWFRQAPGKEREGVATIYTGGGNTYYADSVKGRFTISQDNAKNTVYLQMNNLKPEDTAMYYCAAEPLSRVYGGSCPTPTFDYWGQGTQVTVSS
notes: as for B4
B9: anti-hIL-10Rαecd VHH SEQ ID NO 44 (VHH)
VHH: QVQLQESGGGSVQAGGSLRLSCAASRYLYSIDYMAWFRQSPGKEREPVAVIYTASGATFYPDSVKGRFTISQDNAKMTVYLQMNSLKSEDTAMYYCAAVRKTDSYLFDAQSFTYWGQGTQVTVSS
notes: as for B4
B10: anti-hIL-10Rαecd VHH SEQ ID NO 49 (VHH)
VHH: QVQLQESGGGSVQAGGSLRLSCGASGYTYSSYCMGWFRQVPGKEREGVAVIDSDGSTSYADSVKGRFTISKDNGKNTLYLQMNSLKPEDTAMYYCAADLGHYRPPCGVLYLGMDYWGKGTQVTVSS
notes: as for B4

The binders below were run against T1, extracellular domain of human IL10Rβ … (assay: phage display biopanning on the antigen, positive colonies by PE-ELISA).
Method: (§1) Library biopanning was conducted to screen candidates against the antigens after library construction. Phage display technology was applied in this procedure. Positive colonies were identified by PE-ELISA.
(§2) Camels were immunized with the extracellular domains of the human IL10Rα (amino acids 22-235, UniProtKB Q13651, hIL-10Rαecd) and IL10Rβ (amino acids 20-220, UniProtKB Q08334, hIL-10Rβecd) weekly for seven weeks and PBMCs harvested on day 52. Phage display libraries were constructed and biopanning conducted as described in Example 1 above. 50 VHH sequences were obtained after selection on hIL10-R1 and 47 VHH sequences were obtained after selection on hIL10-R2. Sequences were clonotyped using germline assignment and CDR3 sequence similarity.

Does B1 bind?
Result: binds

Does B2 bind?
Result: binds

Does B3 bind?
Result: binds

What follows are binders tested against T2, extracellular domain of human IL10Rα … in the same assay as above.
Method: as §1, §2

Does B4 bind?
Result: binds

Does B5 bind?
Result: binds

Does B6 bind?
Result: binds

Does B7 bind?
Result: binds

Does B8 bind?
Result: binds

Does B9 bind?
Result: binds

Does B10 bind?
Result: binds
